Assay results reported in patent US20230372448A1, “THERAPEUTIC USE OF LONG-ACTING CONJUGATE OF TRIPLE AGONIST ACTING ON ALL OF GLUCAGON, GLP-1 AND GIP RECEPTORS AGAINST MULTIPLE SCLEROSIS” (HANMI PHARM. CO. ,LTD., priority 2020, published 2023).
Positions of bridges follow the written chain, without caps; N, C: chain ends. Non-standard residues stand in square brackets, D forms with d. No end group written: not given here. *: point of attachment. Acetyl(2-(4-imidazolyl)) = O=C(Cc1c[nH]cn1)*; Aib = CC(C)(N)C(=O)O

T1: human GIP receptor (human, UniProt P48546 22-466)
T1 sequence (looked up): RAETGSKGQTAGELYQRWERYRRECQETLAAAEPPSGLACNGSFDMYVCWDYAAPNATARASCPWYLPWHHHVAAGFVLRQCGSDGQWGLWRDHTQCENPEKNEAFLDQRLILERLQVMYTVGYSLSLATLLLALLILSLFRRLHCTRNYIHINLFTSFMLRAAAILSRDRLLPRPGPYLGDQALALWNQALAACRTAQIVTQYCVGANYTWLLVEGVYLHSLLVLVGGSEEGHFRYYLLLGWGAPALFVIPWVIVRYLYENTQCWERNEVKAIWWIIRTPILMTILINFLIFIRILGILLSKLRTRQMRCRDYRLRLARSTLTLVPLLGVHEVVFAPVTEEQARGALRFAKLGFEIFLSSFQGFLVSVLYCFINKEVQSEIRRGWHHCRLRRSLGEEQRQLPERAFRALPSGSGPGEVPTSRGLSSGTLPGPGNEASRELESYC


Key:
[1] = test system: pyridoxine-induced peripheral neuropathy in non-diabetic rodents; settings: Exp Neurol. 2007; cited from earlier work
[2] = test system: relapsing/remitting multiple sclerosis mouse model; settings: Mol Neurobiol. 2018, cited from earlier work
human GIP receptor = biological target: T1, human GIP receptor; experiment: cell-based or functional assay
human GLP-1 receptor = human GLP-1 receptor (human, UniProt P43220 24-463); experiment: cell-based or functional assay
human GCG receptor = human GCG receptor (human, UniProt P47871 26-477); experiment: cell-based or functional assay
human GCG receptor, sequence (P47871 26-477): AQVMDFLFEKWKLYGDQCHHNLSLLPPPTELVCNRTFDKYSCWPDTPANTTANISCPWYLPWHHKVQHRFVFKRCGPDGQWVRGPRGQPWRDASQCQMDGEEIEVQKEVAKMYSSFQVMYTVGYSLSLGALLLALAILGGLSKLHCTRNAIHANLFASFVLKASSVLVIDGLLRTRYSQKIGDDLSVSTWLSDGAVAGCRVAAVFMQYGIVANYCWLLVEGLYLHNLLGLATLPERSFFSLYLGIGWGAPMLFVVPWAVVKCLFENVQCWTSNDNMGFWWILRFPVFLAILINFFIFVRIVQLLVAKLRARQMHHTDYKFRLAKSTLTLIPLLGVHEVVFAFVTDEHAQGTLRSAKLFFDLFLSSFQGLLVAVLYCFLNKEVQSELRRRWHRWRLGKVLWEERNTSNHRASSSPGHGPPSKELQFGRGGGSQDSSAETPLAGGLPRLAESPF

Molecule | protection against pyridoxine-induced functional and morphological defects [1] | levels of inflammatory cytokines that increase during demyelination [2] | symptoms of multiple sclerosis ([2]; effect similar to that of fingolimod) | In vitro activity (%) compared with native peptide: vs GIP (human GIP receptor) | In vitro activity (%) compared with native peptide: vs GLP-1 (human GLP-1 receptor) | In vitro activity (%) compared with native peptide: vs Glucagon (human GCG receptor)
exendin-4 | partially protected | reduced the levels of inflammatory cytokines | symptom alleviating effect | – | – | –
glucagon-like peptide-1 (HAEGTFTSDVSSYLEGQAAKEFIAWLVKGR; ends and bridges not checked; UniProt P01275 98-127, looked up) [GLP-1, a typical incretin hormone] | partially protected | – | – | – | – | –
{Acetyl(2-(4-imidazolyl))}-GQGTFTSDLSKQMDSERAREFIEWLKNTGPSSGAPPPSHG (not fully specified; also: ring from underlined residues, positions not shown) [triple agonist of SEQ ID NO: 18] | – | – | – | < 0.1% | < 0.1% | < 0.1%
Y[Aib]QGTFTSDYSKYLDECRAKEFVQWLKNGGPSSGAPPPS (bridge 16-20) [triple agonist of SEQ ID NO: 24] | – | – | – | < 0.1% | 41.2% | 9.3%
H[Aib]QGTFTSDCSKYLDSRAAQDFVQWLLDGGPSSGAPPPS (not fully specified) [triple agonist of SEQ ID NO: 26] | – | – | – | < 0.1% | 64.5% | 0.2%
H[Aib]QGTFTSDYSKYLDEKACKDFVQWLLDGGPSSGAPPPS (bridge 16-20; not fully specified) [triple agonist of SEQ ID NO: 32] | – | – | – | 8.8% | 151% | 1.7%
H[Aib]QGTFTSDYSKYLDERACQDFVQWLLDQGGPSSGAPPPS (not fully specified) [triple agonist of SEQ ID NO: 27] | – | – | – | 0.9% | 83.1% | 0.8%
Y[Aib]QGTFTSDYSKYLDECRAKEFVQWLLAQKGKKNDWKHNIT (bridge 16-20; not fully specified) [triple agonist of SEQ ID NO: 23] | – | – | – | < 0.1% | 4.01% | 9.3%
H[Aib]QGTFTSDYSKYLDEKRAQEFVCWLLAQKGKKNDWKHNIT (not fully specified) [triple agonist of SEQ ID NO: 28] | – | – | – | < 0.1% | 17.2% | 1.6%
Y[Aib]QGTFTSDYSKCLDEKRAKEFVQWLLDHHPSSGQPPPS (bridge 16-20; not fully specified) [triple agonist of SEQ ID NO: 22] | – | – | – | 59.7% | 20.1% | 140%
Y[Aib]QGTFTSDYSKYLDECRAKEFVQWLLDHHPSSGQPPPS (bridge 16-20; not fully specified) [triple agonist of SEQ ID NO: 21] | – | – | – | 22.7% | 17.8% | 267%
{Acetyl(2-(4-imidazolyl))}-GQGTFTSDLSIQYEEEAQQDFVEWLKDTGPSSGAPPPSHG (not fully specified; also: ring from underlined residues, positions not shown) [triple agonist of SEQ ID NO: 20] | – | – | – | < 0.1% | < 0.1% | < 0.1%
H[Aib]QGTFTSDYSKYLDEKAAKEFVQWLLNTC (bridge 16-20; not fully specified) [triple agonist of SEQ ID NO: 29] | – | – | – | < 0.1% | 38.5% | 6%
H[Aib]QGTFTSDVSSYLLGQAAKQFIAWLVKGGGPSSGAPPPSC (not fully specified) [triple agonist of SEQ ID NO: 3] | – | – | – | < 0.1% | 1.8% | < 0.1%
H[Aib]QGTFTSDCSKYLDERAAQDFVQWLLDGGPSSGAPPPS (not fully specified) [triple agonist of SEQ ID NO: 25] | – | – | – | < 0.1% | 82.6% | 0.1%
{Acetyl(2-(4-imidazolyl))}-GQGTFTSDLSKQMDEERAREFIEWLLAQKPSSGAPPPSHG (not fully specified; also: ring from underlined residues, positions not shown) [triple agonist of SEQ ID NO: 17] | – | – | – | < 0.1% | 0.2% | < 0.1%
H[Aib]QGTFTSDYSKYLDEKAQKEFVQWLLDTC (bridge 16-20; not fully specified) [triple agonist of SEQ ID NO: 30] | – | – | – | 0.8% | 142% | 0.7%
H[Aib]QGTFTSDYSKYLDEKACKEFVQWLLAQ (bridge 16-20; not fully specified) [triple agonist of SEQ ID NO: 31] | – | – | – | 2.4% | 135% | 2.2%
{Acetyl(2-(4-imidazolyl))}-GQGTFTSDLSIQYDSEHQRDFIEWLKDTGPSSGAPPPSHG (not fully specified; also: ring from underlined residues, positions not shown) [triple agonist of SEQ ID NO: 19] | – | – | – | < 0.1% | < 0.1% | < 0.1%
